From publication PMC5074368
Blank lines part the entries; values can stand above or below the molecule they belong to.

How the values were obtained:
[1] = target: F-actin (cellular actin filaments of RPE cells) (human (endogenous in RPE cells)) (UniProt P60709); experiment: co-sedimentation; actin pelleting assay: homogenate of RPE cells expressing GFP-myosin VI constructs in F-actin stabilisation buffer (50 mM PIPES pH 6.9, 50 mM NaCl, mild detergents), 100 000 x g, 1 h, 37°C; quantitative immunoblotting, pellet/supernatant normalised to endogenous myosin VI; the pellet also holds cellular membranes
[2] = target: NDP52 in the prey vector pVP16 (UniProt Q13137); experiment: mammalian two-hybrid assay; settings: parent: est. 100, read off a plot
[3] = target: GIPC in the prey vector pVP16 (UniProt O14908); experiment: mammalian two-hybrid assay; settings: parent: est. 100, read off a plot
[4] = target: TOM1 in the prey vector pVP16 (UniProt O60784); experiment: mammalian two-hybrid assay; settings: parent: est. 100, read off a plot
[5] = target: Dab2 in the prey vector pVP16 (UniProt P98082); experiment: mammalian two-hybrid assay; settings: parent: est. 100, read off a plot
[6] = target: LMTK2 in the prey vector pVP16 (UniProt Q8IWU2); experiment: mammalian two-hybrid assay; settings: n = 4; parent: est. 100; read off a plot
[7] = target: optineurin in the prey vector pVP16 (UniProt Q96CV9); experiment: mammalian two-hybrid assay; settings: n = 4; parent: est. 100; read off a plot
[8] = target: F-actin (cellular actin filaments of RPE cells), P60709; experiment: cell fractionation into supernatant and F-actin-enriched pellet, quantitative immunoblotting; settings: chain shown with the change, n = 3, parent: est. 1.3, read off a plot

Molecule: GFP-tagged full-length myosin VI-NI RRL–AAA (from UniProt Q9UM54-1 1-1285) (natural protein)
fold increase of the pellet/supernatant ratio against WT myosin VI [1]: > 5 fold

Molecule: GFP-tagged full-length myosin VI-NI WWY–WLY (from UniProt Q9UM54-1 1-1285) (natural protein)
fold increase of the pellet/supernatant ratio against WT myosin VI [1]: 3 fold

Molecule: Myosin VI globular tail (amino acids 1036–1294), wild type, in the bait vector pM R1107A
percent of parent (% wildtype control) ([2]; n = 3): 76
percent of parent (% wildtype control) ([3]; n = 3): 69

Molecule: Myosin VI globular tail (amino acids 1036–1294), wild type, in the bait vector pM W1253A
percent of parent (% wildtype control) ([4]; n = 3): 2
percent of parent (% wildtype control) ([4]; n = 4): 2
percent of parent (% wildtype control) ([2]; n = 4): 71
percent of parent (% wildtype control) ([5]; n = 4): 1
percent of parent (% wildtype control) ([5]; n = 5): 1
percent of parent (% wildtype control) [6]: 0
percent of parent (% wildtype control) ([3]; n = 4): 59
percent of parent (% wildtype control) [7]: 120

B1: GFP-tagged full-length myosin VI-NI, wild type, Q9UM54-1 E1251A (protein)
chain: MEDGKPVWAPHPTDGFQMGNIVDIGPDSLTIEPLNQKGKTFLALINQVFPAEEDSKKDVEDNCSLMYLNEATLLHNIKVRYSKDRIYTYVANILIAVNPYFDIPKIYSSEAIKSYQGKSLGTRPPHVFAIADKAFRDMKVLKMSQSIIVSGESGAGKTENTKFVLRYLTESYGTGQDIDDRIVEANPLLEAFGNAKTVRNNNSSRFGKFVEIHFNEKSSVVGGFVSHYLLEKSRICVQGKEERNYHIFYRLCAGASEDIREKLHLSSPDNFRYLNRGCTRYFANKETDKQILQNRKSPEYLKAGSMKDPLLDDHGDFIRMCTAMKKIGLDDEEKLDLFRVVAGVLHLGNIDFEEAGSTSGGCNLKNKSAQSLEYCAELLGLDQDDLRVSLTTRVMLTTAGGTKGTVIKVPLKVEQANNARDALAKTVYSHLFDHVVNRVNQCFPFETSSYFIGVLDIAGFEYFEHNSFEQFCINYCNEKLQQFFNERILKEEQELYQKEGLGVNEVHYVDNQDCIDLIEAKLVGILDILDEENRLPQPSDQHFTSAVHQKHKDHFRLTIPRKSKLAVHRNIRDDEGFIIRHFAGAVCYETTQFVEKNNDALHMSLESLICESRDKFIRELFESSTNNNKDTKQKAGKLSFISVGNKFKTQLNLLLDKLRSTGASFIRCIKPNLKMTSHHFEGAQILSQLQCSGMVSVLDLMQGGYPSRASFHELYNMYKKYMPDKLARLDPRLFCKALFKALGLNENDYKFGLTKVFFRPGKFAEFDQIMKSDPDHLAELVKRVNHWLTCSRWKKVQWCSLSVIKLKNKIKYRAEACIKMQKTIRMWLCKRRHKPRIDGLVKVGTLKKRLDKFNEVVSVLKDGKPEMNKQIKNLEISIDTLMAKIKSTMMTQEQIQKEYDALVKSSEELLSALQKKKQQEEEAERLRRIQEEMEKERKRREEDEKRRRKEEEERRMKLEMEAKRKQEEEERKKREDDEKRIQAEVEAQLARQKEEESQQQAVLEQERRDRELALRIAQSEAELISDEAQADLALRRNDGTRPKMTPEQMAKEMSEFLSRGPAVLATKAAAGTKKYDLSKWKYAELRDTINTSCDIELLAACREEFHRRLKVYHAWKSKNKKRNTETEQRAPKSVTDYDFAPFLNNSPQQNPAAQIPARQREIEMNRQQRFFRIPFIRPADQYKDPQSKKKGWWYAHFDGPWIARQMELHPDKPPILLVAGKDDMEMCELNLEETGLTRKRGAEILPRQFEAIWERCGGIQYLQNAIESRQARPTYATAMLQSLLK
other: pellet:supernatant (P:S) ratio [8]: 1.2

Results, then the molecule that gave them:

percent of parent (% wildtype control) ([2]; n = 3): 100
percent of parent (% wildtype control) ([3]; n = 3): 32
Molecule: Myosin VI globular tail (amino acids 1036–1294), wild type, in the bait vector pM L1109A

percent of parent (% wildtype control) ([2]; n = 3): 16
percent of parent (% wildtype control) ([3]; n = 3): 2
Molecule: Myosin VI globular tail (amino acids 1036–1294), wild type, in the bait vector pM R1108A
